Assay results taken from paper PMC12754688 (Gut Microbes, 2025).

What was measured:
Settings in all cases: both partners purified
[1] = target: T1, heat-labile enterotoxin B-subunit pentamer (LTB-6HIS-3FLAG) (Escherichia coli (ETEC), human-type …, UniProt P0CK94, biotin (NHS-PEG4-Biotin) in the DELFIA experiments only); experiment: SPR; Biacore 8K+; […] (1–300 nM); single-cycle kinetics, HBS-EP+, 30 µl min^−1, 25 °C; global 1:1 model
[2] = target: T1, heat-labile enterotoxin B-subunit …; experiment: SPR; Biacore 8K+; […] (1–300 nM); single-cycle kinetics, HBS-EP+, 30 µl min^−1, 25 °C; global 1:1 model; […]
[3] = target: T1, heat-labile enterotoxin B-subunit …; experiment: BLI; Octet RED96; […] (76 nM) […] (120–0.470 nM); […]
[4] = target: T2, cholera toxin holotoxin (AB5) (Vibrio cholerae; strain/ctxB genotype …, UniProt P01555;P01556); experiment: SEC
T2 construct: source: Vibrio natriegens, from culture medium, purified (D-galactose column, SEC); copies: 1 + 5

[5] = target: T3, cholera toxin B-subunit pentamer (Vibrio cholerae; ctxB genotype of …, UniProt P01556); experiment: BLI
T3 construct: source: bought: Sigma-Aldrich (C9903)

[6] = target: T4, LTB pentamer (receptor-binding B-subunit of heat-labile enterotoxin), LTB-6HIS-3FLAG (Escherichia coli (ETEC), human-type …, UniProt P0CK94); experiment: BLI; Octet RED96; […] (76 nM) […] (120-0.470 nM); global 1:1 ([…]) fit; […]
T4 construct: source: E. coli BL21 (DE3), periplasmic extract, purified (IMAC)

[7] = target: T5, CTXB pentamer (receptor-binding B-subunit of cholera toxin) (Vibrio cholerae; ctxB genotype of …, UniProt P01556); experiment: as above
T5 construct: source: bought: Sigma-Aldrich (C9903)

[8] = target: T4, LTB pentamer (receptor-binding …); experiment: SPR; Biacore 8K+; […] (5 µg/ml) […] (1-300 nM), single-cycle kinetics, HBS-EP+, 30 µl/min, 25 °C; global 1:1 fit; […]
[9] = target: T5, CTXB pentamer (receptor-binding …); experiment: as above
[10] = target: T4, LTB pentamer (receptor-binding …); experiment: SPR; Biacore 8K+; […] (1 µg/ml) […] (1-300 nM), single-cycle kinetics, HBS-EP+, 30 µl/min, 25 °C; global 1:1 fit; […]
[11] = target: T5, CTXB pentamer (receptor-binding …); experiment: as above

T2 sequence (P01556 22-124, looked up, chain 1 of 2): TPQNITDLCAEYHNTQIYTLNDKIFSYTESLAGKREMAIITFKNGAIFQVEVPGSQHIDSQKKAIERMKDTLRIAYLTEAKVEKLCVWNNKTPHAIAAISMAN
T2 sequence (P01555 whole entry, looked up, chain 2 of 2): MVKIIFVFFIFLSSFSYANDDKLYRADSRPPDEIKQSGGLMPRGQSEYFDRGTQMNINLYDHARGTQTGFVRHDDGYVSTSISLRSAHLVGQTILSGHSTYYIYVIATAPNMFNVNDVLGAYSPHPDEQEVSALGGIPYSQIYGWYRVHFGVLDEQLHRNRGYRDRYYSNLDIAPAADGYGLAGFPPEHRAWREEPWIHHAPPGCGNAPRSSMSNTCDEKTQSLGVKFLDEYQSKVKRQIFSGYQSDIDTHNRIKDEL

B1: monovalent VHH BL2.1 (VHH)
VHH: QVQLQQSGGGLVQAGGSLRLSCAASGFTFDDYAIGWFRQAPGKEREGISSIVGSDNYTWYTDSVKGRFTISSDNTRSTVYLQMNSLKPEDTAVYYCAADSYSDYVSLNPETFGSWGQGTQVTVSS
notes: also called LT109; non-N-glycosylated BL2.1; source: E. coli BL21 (DE3), periplasmic extract, purified (IMAC, cation exchange)
**Q.** Which results are given for B1?
**A.** Kd [1]: 0.26 nM; Kd [2]: 0.003 nM; Kd [3]: < 0.001 nM; binding result [4]: binds; Kd [5]: 0.33 nM

B2: BL2.1 (monovalent VHH) (VHH)
VHH: B1 VHH
notes: also called LT109; VHH BL2.1; source: E. coli BL21 (DE3), periplasmic extract, purified (IMAC, cation exchange)
**Q.** For B2, which koff [6] is on record?
**A.** < 1e-07 s⁻¹

**Q.** What about the kon [6] of the same binder?
**A.** 69700 M⁻¹ s⁻¹

**Q.** What about the koff [7] of the same binder?
**A.** 3.53e-05 s⁻¹

**Q.** What about the kon [7] of the same binder?
**A.** 108000 M⁻¹ s⁻¹

**Q.** What about the koff [8] of the same binder?
**A.** 0.000182 s⁻¹

**Q.** What about the kon [8] of the same binder?
**A.** 696000 M⁻¹ s⁻¹

**Q.** And the koff [9]?
**A.** 0.00179 s⁻¹

**Q.** And the kon [9]?
**A.** 218000 M⁻¹ s⁻¹

**Q.** And the koff [10]?
**A.** 2.48e-05 s⁻¹

**Q.** And the kon [10]?
**A.** 7.93e+06 M⁻¹ s⁻¹

**Q.** And the koff [11]?
**A.** 0.000212 s⁻¹

**Q.** And the kon [11]?
**A.** 557000 M⁻¹ s⁻¹
